Experimental data published in patent US8034904B2, “Anti-IGF-I receptor antibody” (Immunogen Inc., priority 2002, dated 2011).

Legend:
human IGF-I receptor = assay: FACS binding to cells overexpressing human IGF-I receptor; conditions: EM164 50-100 nM
Experimental: (§1) Incubation of EM164 antibody (50-100 nM) in 100 μL cold FACS buffer (1 mg/mL BSA in Dulbecco's MEM medium) was performed using cells overexpressing IGF-I receptor and using cells overexpressing insulin receptor (2×10^5 cells/mL) in a round-bottom 96-well plate for 1 h. The cells were pelleted by centrifugation and washed with cold FACS buffer by gentle flicking, followed by incubation with goat-anti-mouse-IgG-antibody-FITC conjugate (100 μL; 10 μg/mL in FACS buffer) on ice for 1 h. The cells were pelleted, washed, and resuspended in 120 μL of 1% formaldehyde solution in PBS. The plate was analyzed using a FACSCalibur reader (BD Biosciences).

human insulin receptor = target: T1, human insulin receptor (Homo sapiens, UniProt P06213); assay: FACS binding to cells overexpressing human insulin receptor; conditions: EM164 50-100 nM
T1 construct: expressed in transfected cells; host or cells: 3T3-like cells of IGF-I receptor deficient mice
Experimental: as §1

[1] = target: T2, IGF-I receptor on MCF-7 cells (Homo sapiens, UniProt P08069); assay: FACS binding to human breast cancer MCF-7 cells
T2 construct: human breast cancer MCF-7 cells, which expressed IGF-I receptor; endogenous in cells; host or cells: MCF-7 human breast cancer cells
Experimental: The cells were pelleted by centrifugation and washed with cold FACS buffer by gentle flicking, followed by incubation with goat-anti-mouse-IgG-antibody-FITC conjugate (100 μL; 10 μg/mL in FACS buffer) on ice for 1 h. The cells were pelleted, washed, and resuspended in 120 μL of 1% formaldehyde solution in PBS. The plate was analyzed using a FACSCalibur reader (BD Biosciences).

[2] = target: biotinylated human IGF-I receptor; assay: ELISA binding titration (Kd) with biotinylated IGF-I receptor
Experimental: The wells were next washed with TBS-T buffer and incubated with goat-anti-mouse-IgGH+L-antibody-horseradish peroxidase conjugate (100 μL; 0.5 μg/mL in blocking buffer), followed by washes and detection using ABTS/H2O2 substrate at 405 nm. The value of Kd was estimated by non-linear regression for one-site binding.
A similar binding titration was carried out using the Fab fragment of EM164 antibody, prepared by papain digestion of the antibody as described by E. Harlow and D. Lane (“Using Antibodies: A Laboratory Manual”; 1999, Cold Spring Harbor Laboratory Press, New York).

[3] = target: T3, SDS-denatured human IGF-I receptor (Homo sapiens, UniProt P08069); assay: Western blot detection of SDS-denatured IGF-I receptor in MCF-7 lysates; assay type: binding; conditions: lysates from MCF-7 cells
T3 construct: human breast cancer MCF-7 cells, which expressed IGF-I receptor; endogenous in cells; host or cells: MCF-7 human breast cancer cells
Source text: A Western blot of the EM164 antibody immunoprecipitate was detected using a rabbit polyclonal anti-IGF-I receptor beta chain (C-terminus) antibody (Santa Cruz Biotechnology) and a goat-anti-rabbit-IgG-antibody-horseradish peroxidase conjugate, followed by washes and enhanced chemiluminescence (ECL) detection.

IGF-I receptor = target: T4, IGF-I receptor (Homo sapiens, UniProt P08069); assay: Downregulation of IGF-I receptor in MCF-7 cells (Western blot); assay type: cell-based
T4 construct: human breast cancer MCF-7 cells, which expressed IGF-I receptor; endogenous in cells; host or cells: MCF-7 human breast cancer cells
Experimental: Therefore, the inhibition of binding of IGF-I and the displacement of bound IGF-I by EM164 antibody at both 4° C. and 37° C. in these short-term experiments may not be explained by the down-regulation of the receptor due to the binding of the EM164 antibody. The mechanism for the potent inhibition of the binding of IGF-I to IGF-I receptor and for the displacement of the pre-bound IGF-I by EM164 antibody is likely to be competition for binding, either through sharing of the binding site or through steric occlusion or through allosteric effects.

HT-29 colon cancer cells = assay: Growth and survival of HT-29 cells (MTT assay, colony formation); assay type: cell-based, human
Experimental: (§2) Several human tumor cell lines were tested in serum-free conditions for their growth and survival response to IGF-I. These cell lines were treated with EM164 antibody in the presence of IGF-I, IGF-II, or serum, and their growth and survival responses were measured using an MTT assay after 2-4 days. Approximately 1500 cells were plated in a 96-well plate in regular medium with serum, which was replaced with serum-free medium the following day (either serum-free RPMI medium supplemented with transferrin and BSA, or phenol-red free medium as specified by Dufourny, B. et al., 1997, J. Biol. Chem., 272, 31163-31171). After one day of growth in serum-free medium, the cells were incubated with about 75 μL of 10 μg/mL antibody for 30 min.-3 h, followed by the addition of 25 μL of IGF-I (or IGF-II or serum) solution to obtain a final concentration of 10 ng/mL IGF-I, or 20 ng/mL IGF-II, or 0.04-10% serum. In some experiments, the cells were stimulated first with IGF-I for 15 min before the addition of EM164 antibody, or both IGF-I and EM164 antibody were added together. The cells were then allowed to grow for another 2-3 days. A solution of MTT (3-(4,5)-dimethylthiazol-2-yl)-2,5-diphenyltetrazolium bromide; 25 μL of a 5 mg/mL solution in PBS) was then added and the cells were returned to the incubator for 2-3 h. The medium was then removed and replaced by 100 μL DMSO, mixed, and the absorbance of the plate was measured at 545 nm.

NCI-H596 cells = assay: Growth and survival of NCI-H596 cells (MTT assay); assay type: cell-based, human
Experimental: as §2

SK-Mel-37 cells = assay: Growth and survival of SK-Mel-37 cells (MTT assay); assay type: cell-based, human; conditions: 5-10 μg/mL EM164, 10 ng/mL IGF-I
Experimental: as §2, with “A solution of MTT (3-(4,5)-dimethylthiazol-2-yl)-2,5-diphenyltetrazolium bromide; 25 μL of a 5 mg/mL solution in PBS) was then added and the cells were returned to the incubator for 2-3 h.” left out

[4] = tested on: NCI-H838 lung cancer cells; assay: Apoptosis: caspase-cleaved cytokeratin CK18 in NCI-H838 cells; assay type: cell-based, human; conditions: IGF-I or serum, presence vs absence of EM164, 1 day
Experimental: For measurement of apoptosis, cleavage of the cytokeratin CK18 protein by caspase was measured in NCI-H838 lung cancer cells incubated with IGF-I or serum in the presence or absence of EM164 for 1 day (FIG. 26).

B1: EM164: murine anti-IGF-I receptor monoclonal antibody, IgG1 with kappa light chain, hybridoma ATCC PTA-4457; heavy SEQ ID NO:7, light SEQ ID NO:8 (antibody)
heavy: QVQLQQSGAELVKPGASVKLSCKASGYTFTSYWMHWVKQRPGQGLEWIGEINPSNGRTNYNEKFKRKATLTVDKSSSTAYMQLSSLTSEDSAVYYFARGRPDYYGSSKWYFDVWGAGTTVTVSS
light: DVLMTQTPLSLPVSLGDQASISCRSSQSIVHSNVNTYLEWYLQKPGQSPKLLIYKVSNRFSGVPDRFSGSGSGTDFTLRISRVEAEDLGIYYCFQGSHVPPTFGGGTKLEIKR
modifications: antibody heavy chain; antibody light chain
fluorescence shift (FACS) (human IGF-I receptor): strong fluorescence shift | fluorescence shift (FACS) (human insulin receptor): insignificant shift | fluorescence shift (FACS) [1]: strong fluorescence shift | Kd ([2]; ELISA titration, non-linear regression for one-site binding, read-out: dissociation constant (Kd)): 100 pM | koff rate ([2]; strong binding signals after prolonged 1-2 day washes): very slow | detection of SDS-denatured human IGF-I receptor in Western blots [3]: did not detect | downregulation of the IGF-I receptor (IGF-I receptor; 4° C. for 2 h (or 37° C. for 30 min)): did not result in a significant downregulation | downregulation of the IGF-I receptor (IGF-I receptor; 37° C. for 2 h): 25% | colony size of HT29 colon cancer cells (HT-29 colon cancer cells): greatly reduced | Inhibition by EM164 antibody of IGF-I-stimulated growth in serum-free medium (HT-29 colon cancer cells; HT-29, 5-10 μg/mL EM164, 10 ng/mL IGF-I): 60% | % Inhibition by EM164 antibody of Growth/survival of cells in 1.25-10% serum (HT-29 colon cancer cells; HT-29, 5-10 μg/mL EM164, MTT or colony formation assay): Yes | Inhibition by EM164 antibody of IGF-I-stimulated growth in serum-free medium (NCI-H596 cells; 5-10 μg/mL EM164, 10 ng/mL IGF-I): 100% | % Inhibition by EM164 antibody of Growth/survival of cells in 1.25-10% serum (NCI-H596 cells; 5-10 μg/mL EM164, MTT or colony formation assay): Weakly | Inhibition by EM164 antibody of IGF-I-stimulated growth in serum-free medium (SK-Mel-37 cells): 85% | caspase-cleaved CK18 levels [4]: greater cleaved CK18 levels
